Measured values reported in US11046981B2, “Host cell modified to produce lactams” (The Regents of the University of California, priority 2016, dated 2021).

Assays:
ORF27 [1] = target: T1, ORF27 (Streptomyces aizunensis, UniProt Q52V65); experiment: ATP-PPi release assay for ORF27 (substrate range, steady state parameters); assay type: biochemical; settings: substrates with a negatively charged group on the ω-terminal end
T1 sequence (Q52V65 1-470): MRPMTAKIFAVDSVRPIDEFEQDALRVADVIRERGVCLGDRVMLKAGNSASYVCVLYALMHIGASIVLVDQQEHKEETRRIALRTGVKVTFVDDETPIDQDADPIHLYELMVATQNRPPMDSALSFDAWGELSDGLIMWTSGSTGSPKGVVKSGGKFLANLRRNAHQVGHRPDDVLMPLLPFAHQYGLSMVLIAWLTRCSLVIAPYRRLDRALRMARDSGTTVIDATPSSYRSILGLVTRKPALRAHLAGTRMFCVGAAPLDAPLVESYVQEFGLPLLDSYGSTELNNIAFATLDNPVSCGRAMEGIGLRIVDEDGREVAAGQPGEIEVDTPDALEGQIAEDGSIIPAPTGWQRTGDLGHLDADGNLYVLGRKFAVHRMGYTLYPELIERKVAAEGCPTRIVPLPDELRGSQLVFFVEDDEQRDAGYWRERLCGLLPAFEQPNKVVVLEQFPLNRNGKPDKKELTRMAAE
Protocol: The substrate range of ORF27 was determined by ATP-PPi release assays as previously described (12). Without prior knowledge about the reaction pathways, the ATP-PPi assay served a semi-quantitative method to compare substrate induced acceleration of ATP consumption. For kinetic investigation of ORF27 activity with different substrates, the inorganic pyrophosphate released by enzymatic reaction was measured continuously using the EnzChek Pyrophosphate Assay Kit (Invitrogen). A typical assay contained in a total volume of 150 μL: 5 μM of ORF27, 0-20 mM substrates, 1 mM ATP, 1 mM CoASH and 1 mM Mg(Cl)2 in 100 mM HEPES, pH 7.5. 2-amino-6-mercapto-7-methylpurine ribonucleoside (MESG) substrate, purine nucleoside phosphorylase and inorganic pyrophosphatase were added according to the protocol. Reactions were initiated by the addition of ATP and monitored at 360 nm with SpectraMax M2 (Molecular Devices, Sunnyvale, Calif.). Initial velocities were calculated using the standard curve for inorganic pyrophosphate. For each concentration, control reactions were carried out without enzyme or without ATP. The rates of PPi release were converted to observed rates, and the Michaelis-Menten kinetic parameters were obtained. […]
The sensitivity of the ATP-PPi release assay (5 μM Pi) allowed the initial velocity to be determined within the first 2 min of reaction incubation. […]

ORF27 [2] = target: T1, ORF27; experiment: In vitro ORF27 lactam formation with ATP or ADP, product analysis by HPLC-MS; assay type: biochemical; settings: ADP instead of ATP to activate ω-amino fatty acids
Protocol: (§1) To compare formation of various lactams by ORF27, a reaction mixture containing […] of ORF27, 5 mM ω-amino fatty acids substrates, 1 mM ATP or ADP, 0.5 mM CoASH and 1 mM Mg(CI)2 in 100 mM HEPES (pH=8) was incubated at 25° C. The reactions were quenched by addition of methanol to a final concentration of 50% (v/v) at multiple time points (0 min, 15 min, 1 h, 2 h, 4 h and 19 h). The resulting quenched reactions were kept at 4° C. and filtered through 10 K Amicon Ultra-0.5 mL Centrifugal Filters (Millipore) at 8000×g for 30 min. The filtered solutions were analyzed for lactams and nucleotides using HPLC-MS. Control reactions were carried out without enzyme, without substrate, without ATP, without CoASH or without MgCl2 (supplying additional 0.2 mM EDTA to chelate Mg^2+ ions from purified protein stock). Caprolactam, valerolactam and butyrolactam, AMP, ADP and ATP were purchased as standards from Sigma-Aldrich. The pH dependence of ORF27-catalyzed butrylactam formation was determined using an end-point assay, and the amount of butyrolactam was determined using the HPLC-MS method described above.
The ORF27-catalyzed lactam formation reaction in vitro was monitored for both nucleotide and lactam products, using either ATP or ADP as the energy source. […] In the absence of ORF27, ATP remained stable throughout the reaction (FIG. 6A). […]

[3] = Solubility noted during preparation of substrate stock solution; assay type: physicochemical; settings: under neutral pH; HCl added to obtain 100 mM stock solution in pH ~2.0
Description: (§2) The acids assayed were glutamic acid, γ-aminobutyrate (GABA), 4-guanidinobutyric acid, (S)-3-hydroxyl-butyric acid, valeric acid, 4-methyl-hexanoic acid, 3-aminobutyric acid, 6-aminocaproic acid, 6-guanidinohexanoic acid, glutaric acid, adipic acid, 2-aminobutyric acid and (Sigma-Aldrich, St. Louis, Mo.).

[4] = pH profile of ORF27 catalyzed butyrolactam formation (end-point assay); assay type: biochemical
Protocol: FIG. 8. pH profile of ORF27 catalyzed butyrolactam formation. A reaction mixture containing 5 μM ORF27, 1 mM GABA, 1 mM ATP, 1 mM CoASH and 1 mM Mg(Cl)2 in 100 mM HEPES (pH 7.5) was incubated at 25° C. for 30 min. The reaction was quenched by equal volume of methanol, and the filtered solution was analyzed by analytical method described above.
as §1, with “Caprolactam, valerolactam and butyrolactam, AMP, ADP and ATP were purchased as standards from Sigma-Aldrich.” left out

[5] = substrate: N=C(N)NCCCCCC(=O)O; experiment: ATP-PPi release assay for ORF27 (substrate range, steady state parameters); assay type: biochemical, Streptomyces aizunensis; settings: other: 100 mM HEPES, pH 7.5 at 25° C.
Protocol: (§3) The substrate range of ORF27 was determined by ATP-PPi release assays as previously described (12). Without prior knowledge about the reaction pathways, the ATP-PPi assay served a semi-quantitative method to compare substrate induced acceleration of ATP consumption. For kinetic investigation of ORF27 activity with different substrates, the inorganic pyrophosphate released by enzymatic reaction was measured continuously using the EnzChek Pyrophosphate Assay Kit (Invitrogen). A typical assay contained in a total volume of 150 μL: 5 μM of ORF27, 0-20 mM substrates, 1 mM ATP, 1 mM CoASH and 1 mM Mg(Cl)2 in 100 mM HEPES, pH 7.5. 2-amino-6-mercapto-7-methylpurine ribonucleoside (MESG) substrate, purine nucleoside phosphorylase and inorganic pyrophosphatase were added according to the protocol. Reactions were initiated by the addition of ATP and monitored at 360 nm with SpectraMax M2 (Molecular Devices, Sunnyvale, Calif.). Initial velocities were calculated using the standard curve for inorganic pyrophosphate. For each concentration, control reactions were carried out without enzyme or without ATP. The rates of PPi release were converted to observed rates, and the Michaelis-Menten kinetic parameters were obtained.
as §2
(§4) The sensitivity of the ATP-PPi release assay (5 μM Pi) allowed the initial velocity to be determined within the first 2 min of reaction incubation. During this time period, ATP hydrolysis activity by ORF27 was not observed according to the ATP-PPi assay (ATP hydrolysis was observed over longer period of time though, see discussion below).

[6] = substrate: NCCCC(=O)O; experiment: as above; assay type: biochemical, Streptomyces aizunensis; settings: other: 100 mM HEPES, pH 7.5 at 25° C.
Protocol: as §3, §2, §4

[7] = substrate: N=C(N)NCCCC(=O)O; experiment: as above; assay type: biochemical, Streptomyces aizunensis; settings: other: 100 mM HEPES, pH 7.5 at 25° C.
Protocol: as §3, §2, §4

[8] = substrate: CCC(C)CCC(=O)O; experiment: as above; assay type: biochemical, Streptomyces aizunensis; settings: other: 100 mM HEPES, pH 7.5 at 25° C.
Protocol: as §3, §2, §4

[9] = substrate: NCCCCCC(=O)O; experiment: as above; assay type: biochemical, Streptomyces aizunensis; settings: other: 100 mM HEPES, pH 7.5 at 25° C.
Protocol: as §3, §2, §4

[10] = substrate: CCC(N)C(=O)O; experiment: as above; assay type: biochemical, Streptomyces aizunensis; settings: other: 100 mM HEPES, pH 7.5 at 25° C.
Protocol: as §3, §2, §4

[11] = substrate: CCCCC(=O)O; experiment: as above; assay type: biochemical, Streptomyces aizunensis; settings: other: 100 mM HEPES, pH 7.5 at 25° C.
Protocol: as §3, §2, §4

Question: With `O=C(O)CCCCC(=O)O` [adipic acid, Adipic acid] as the molecule, how does the “enzyme activity of ORF27 on the substrate” value (ORF27 [1]) read?
Answer: not observed

Question: For `Nc1ncnc2c1ncn2[C@@H]1O[C@H](COP(=O)(O)OP(=O)(O)O)[C@@H](O)[C@H]1O` [ADP], which “rate of lactam formation with ADP relative to the similar reaction with ATP” value (ORF27 [2]) is on record?
Answer: 20-50%

Question: Which solubility [3] does the source give for `N=C(N)NCCCCCC(=O)O` [6-Guanidinohexanoic acid] here?
Answer: low solubility

Question: With `O=C(O)CCCC(=O)O` [glutaric acid, Glutaric acid] as the molecule, how does the “enzyme activity of ORF27 on the substrate” value (ORF27 [1]) read?
Answer: not observed

B1: ORF27 (Streptomyces aizunensis) (protein)
chain: T1 sequence (Q52V65 1-470)
Question: With B1 as the molecule, how does the “pH below which the enzyme precipitated and became inactive” value [4] read?
Answer: below 6.0

Question: And the pH optimum [4]?
Answer: 8.0

Question: And the Km [5]?
Answer: 110 µM

Question: And the kcat [5]?
Answer: 0.0055 s⁻¹

Question: And the kcat/Km [5]?
Answer: 49 M⁻¹ s⁻¹

Question: What about the Km [6] of the same molecule?
Answer: 17200 µM

Question: What about the kcat [6] of the same molecule?
Answer: 0.00583 s⁻¹

Question: And the kcat/Km [6]?
Answer: 0.338 M⁻¹ s⁻¹

Question: And the Km [7]?
Answer: 13 µM

Question: And the kcat [7]?
Answer: 0.002 s⁻¹

Question: What about the kcat/Km [7] of the same molecule?
Answer: 157 M⁻¹ s⁻¹

Question: What about the Km [8] of the same molecule?
Answer: 12100 µM

Question: And the kcat [8]?
Answer: 0.0217 s⁻¹

Question: What about the kcat/Km [8] of the same molecule?
Answer: 1.8 M⁻¹ s⁻¹

Question: What about the Km [9] of the same molecule?
Answer: 56 µM

Question: What about the kcat [9] of the same molecule?
Answer: 0.00283 s⁻¹

Question: And the kcat/Km [9]?
Answer: 49.4 M⁻¹ s⁻¹

Question: And the Km [10]?
Answer: 1630 µM

Question: What about the kcat [10] of the same molecule?
Answer: 0.0006 s⁻¹

Question: What about the kcat/Km [10] of the same molecule?
Answer: 0.37 M⁻¹ s⁻¹

Question: What about the Km [11] of the same molecule?
Answer: 52200 µM

Question: What about the kcat [11] of the same molecule?
Answer: 0.0283 s⁻¹

Question: What about the kcat/Km [11] of the same molecule?
Answer: 0.543 M⁻¹ s⁻¹
